Measured values as given in article PMC3197213 (Structure (London, England : 1993), 2011).

Target: rat syntaxin-1A SNARE motif (residues 191-253) (rat, UniProt P32851 191-253)
Assay: NMR titration

Chain of rat syntaxin-1A SNARE motif (residues 191-253) (P32851 191-253): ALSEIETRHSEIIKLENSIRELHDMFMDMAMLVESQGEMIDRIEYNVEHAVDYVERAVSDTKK

Kd: > 300 µM
B1: Rat Munc13-1 MUN-CD module (1148-1407,EF,1453-1531 fragment) (domain or fragment)
chain: not shown
